Assay results taken from patent publication US20100137208A1, “INTRATUMORALLY ADMINISTERED LACTOFERRIN IN THE TREATMENT OF MALIGNANTNEOPLASMS AND OTHER HYPERPROLIFERATIVE DISEASES” (priority 2002, published 2010).

Tested on: IL-18
Assay: IL-18 levels in small intestine and serum after oral rhLF or bLF (ELISA)
Type: in vivo, mice
Experimental: Recombinant human lactoferrin and bovine lactoferrin were orally administered to mice, and the production of IL-18 in the small intestine was measured.
Mice were treated for three days daily with 65 mg/kg/day of rhLF, 300 mg/kg/day of rhLF or 300 mg/kg/day of bLF. For a control, mice were only administered the pharmaceutical carrier. Twenty-four hours following administration of the LF or control for 3 days, animals were weighed and blood and serum were collected. Serum was used for cytokine ELISA assays.
Also, at these time points, animals were sacrificed and the small intestinal tissue was removed for further analysis. Small intestinal epithelium was homogenized using a lysis buffer consisting of PBS, 1% Nonidet P-40, 0.5% sodium deoxycholate, and 0.1% sodium dodecyl sulphate containing 10 μg/ml PhenylMetheylsulfonyl fluoride. Homogenate was centrifuged at 15,000 rpm for 10 minutes and the supernatant stored at −80 C till it was tested for IL-18 levels.

[1] = oral 300 mg/kg/day for three days
[2] = oral 300 mg/kg/day for three days, 24 h after last dose

B1: bLF: bovine lactoferrin, orally administered comparator (protein, UniProt P24627 20-708, looked up)
Lactotransferrin: APRKNVRWCTISQPEWFKCRRWQWRMKKLGAPSITCVRRAFALECIRAIAEKKADAVTLDGGMVFEAGRDPYKLRPVAAEIYGTKESPQTHYYAVAVVKKGSNFQLDQLQGRKSCHTGLGRSAGWIIPMGILRPYLSWTESLEPLQGAVAKFFSASCVPCIDRQAYPNLCQLCKGEGENQCACSSREPYFGYSGAFKCLQDGAGDVAFVKETTVFENLPEKADRDQYELLCLNNSRAPVDAFKECHLAQVPSHAVVARSVDGKEDLIWKLLSKAQEKFGKNKSRSFQLFGSPPGQRDLLFKDSALGFLRIPSKVDSALYLGSRYLTTLKNLRETAEEVKARYTRVVWCAVGPEEQKKCQQWSQQSGQNVTCATASTTDDCIVLVLKGEADALNLDGGYIYTAGKCGLVPVLAENRKSSKHSSLDCVLRPTEGYLAVAVVKKANEGLTWNSLKDKKSCHTAVDRTAGWNIPMGLIVNQTGSCAFDEFFSQSCAPGADPKSRLCALCAGDDQGLDKCVPNSKEKYYGYTGAFRCLAEDVGDVAFVKNDTVWENTNGESTADWAKNLNREDFRLLCLDGTRKPVTEAQSCHLAVAPNHAVVSRSDRAAHVKQVLLHQQALFGKNGKNCPDKFCLFKSETKNLLFNDNTECLAKLGGRPTYEEYLGTEYVTAIANLKKCSTSPLLEACAFLTR
With B1 the “serum levels of IL-18 (in words)” value (oral 300 mg/kg/day) was “did not increase”, the “IL-18 Intestinal Extract % Increase Over Control” value [1] was 373% and the “IL-18 Serum % Increase Over Control” value [1] was −5%. The “IL-18 level, Intestinal Extract” value [2] was 4,515 pg, the “IL-18 level, Serum” value [2] was 134 pg and the “intestinal IL-18 levels (in words)” value (oral 300 mg/kg/day, compared with rhLF) was “lesser increase”.
